Measured values taken from patent publication US20160272683A1 (Novo Nordisk, published 2016).
Numbered stars: 1 amine (or outer) side, 2 acyl side, 3 side chain; on linkers, the order of the positions; unused ones are H or OH. Side chains are listed from the residue outwards. Ends that are not written are not given here. * marks the point of attachment. C20 diacid = O=C(O)CCCCCCCCCCCCCCCCCCC(=O)*; C18 diacid = O=C(O)CCCCCCCCCCCCCCCCC(=O)*; γGlu = O=C(O)[C@H](CCC(=O)[*:2])N[*:1]

T1: human calcitonin receptor on BHK570/CRE-luc cells (human, UniProt P30988 25-474)
T1 sequence (looked up): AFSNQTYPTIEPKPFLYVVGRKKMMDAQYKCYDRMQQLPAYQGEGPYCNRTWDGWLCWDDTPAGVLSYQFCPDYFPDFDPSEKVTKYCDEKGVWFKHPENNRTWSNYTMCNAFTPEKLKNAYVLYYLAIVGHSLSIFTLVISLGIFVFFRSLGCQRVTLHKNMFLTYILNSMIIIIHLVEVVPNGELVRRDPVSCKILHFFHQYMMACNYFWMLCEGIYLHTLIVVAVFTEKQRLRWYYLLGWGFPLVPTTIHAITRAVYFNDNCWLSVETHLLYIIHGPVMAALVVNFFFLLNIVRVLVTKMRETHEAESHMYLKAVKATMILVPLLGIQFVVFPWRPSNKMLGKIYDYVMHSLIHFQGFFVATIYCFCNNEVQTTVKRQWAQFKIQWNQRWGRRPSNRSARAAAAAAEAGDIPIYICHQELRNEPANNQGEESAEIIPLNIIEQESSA

T2: human amylin 3(a) receptor (human calcitonin receptor co-expressed with RAMP-3) on BHK570/CRE-luc cells (human, UniProt P30988 25-474; O60896 24-148)
T2 sequence (looked up) 1: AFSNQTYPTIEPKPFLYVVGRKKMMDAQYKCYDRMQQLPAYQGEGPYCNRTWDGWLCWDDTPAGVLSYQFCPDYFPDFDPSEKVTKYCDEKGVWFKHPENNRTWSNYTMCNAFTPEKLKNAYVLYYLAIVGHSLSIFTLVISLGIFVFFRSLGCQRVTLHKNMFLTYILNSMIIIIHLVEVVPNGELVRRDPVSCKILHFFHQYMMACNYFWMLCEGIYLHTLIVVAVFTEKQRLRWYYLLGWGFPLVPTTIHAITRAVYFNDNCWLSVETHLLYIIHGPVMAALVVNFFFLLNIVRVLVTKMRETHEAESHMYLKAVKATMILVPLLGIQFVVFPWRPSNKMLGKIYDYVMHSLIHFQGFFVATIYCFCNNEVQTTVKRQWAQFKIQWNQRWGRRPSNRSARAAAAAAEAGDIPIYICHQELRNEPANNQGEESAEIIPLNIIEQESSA
T2 sequence (looked up) 2: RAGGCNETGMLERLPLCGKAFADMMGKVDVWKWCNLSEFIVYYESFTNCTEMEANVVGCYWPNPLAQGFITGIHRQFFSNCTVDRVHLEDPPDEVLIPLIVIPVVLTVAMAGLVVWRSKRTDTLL


Assays:
[1] = biological target: T1, human calcitonin receptor on …; experiment: cell-based or functional assay
[2] = biological target: T2, human amylin 3(a) receptor (human …); experiment: cell-based or functional assay

Row | Binder | hCTR funct. EC50 (pM), tested with HSA [1] | hAmylin-R funct. EC50 (pM), tested with HSA [2]
1 | {C20 diacid-γGlu}-AASELSTAALGRLSAELHELATYPRTETGSGSP-NH2 (SMILES CC(C)C[C@H](NC(=O)[C@H](C)NC(=O)[C@H](C)NC(=O)[C@@H](NC(=O)[C@H](CO)NC(=O)[C@H](CC(C)C)NC(=O)[C@H](CCC(=O)O)NC(=O)[C@H](CO)NC(=O)[C@H](C)NC(=O)[C@H](C)NC(=O)CC[C@H](NC(=O)CCCCCCCCCCCCCCCCCCC(=O)O)C(=O)O)[C@@H](C)O)C(=O)NCC(=O)N[C@@H](CCCNC(=N)N)C(=O)N[C@@H](CC(C)C)C(=O)N[C@@H](CO)C(=O)N[C@@H](C)C(=O)N[C@@H](CCC(=O)O)C(=O)N[C@@H](CC(C)C)C(=O)N[C@@H](Cc1c[nH]cn1)C(=O)N[C@@H](CCC(=O)O)C(=O)N[C@@H](CC(C)C)C(=O)N[C@@H](C)C(=O)N[C@H](C(=O)N[C@@H](Cc1ccc(O)cc1)C(=O)N1CCC[C@H]1C(=O)N[C@@H](CCCNC(=N)N)C(=O)N[C@H](C(=O)N[C@@H](CCC(=O)O)C(=O)N[C@H](C(=O)NCC(=O)N[C@@H](CO)C(=O)NCC(=O)N[C@@H](CO)C(=O)N1CCC[C@H]1C(N)=O)[C@@H](C)O)[C@@H](C)O)[C@@H](C)O) [[N-terminal(C20 diacid-gGlu), 1A, 23Y, 30S, 31G]mimylin] | 51 pM | 82 pM
2 | {C20 diacid-γGlu}-ASELSTAALGRLSAELHELATLPRTETGSGSY-NH2 (SMILES CC(C)C[C@H](NC(=O)[C@H](C)NC(=O)[C@H](C)NC(=O)[C@@H](NC(=O)[C@H](CO)NC(=O)[C@H](CC(C)C)NC(=O)[C@H](CCC(=O)O)NC(=O)[C@H](CO)NC(=O)[C@H](C)NC(=O)CC[C@H](NC(=O)CCCCCCCCCCCCCCCCCCC(=O)O)C(=O)O)[C@@H](C)O)C(=O)NCC(=O)N[C@@H](CCCNC(=N)N)C(=O)N[C@@H](CC(C)C)C(=O)N[C@@H](CO)C(=O)N[C@@H](C)C(=O)N[C@@H](CCC(=O)O)C(=O)N[C@@H](CC(C)C)C(=O)N[C@@H](Cc1c[nH]cn1)C(=O)N[C@@H](CCC(=O)O)C(=O)N[C@@H](CC(C)C)C(=O)N[C@@H](C)C(=O)N[C@H](C(=O)N[C@@H](CC(C)C)C(=O)N1CCC[C@H]1C(=O)N[C@@H](CCCNC(=N)N)C(=O)N[C@H](C(=O)N[C@@H](CCC(=O)O)C(=O)N[C@H](C(=O)NCC(=O)N[C@@H](CO)C(=O)NCC(=O)N[C@@H](CO)C(=O)N[C@@H](Cc1ccc(O)cc1)C(N)=O)[C@@H](C)O)[C@@H](C)O)[C@@H](C)O) [[N-terminal(C20 diacid-gGlu), des1, 30S, 31G, 33Y]mimylin] | 49 pM | 62 pM
3 | {C20 diacid-γGlu}-ASELSTAALGRLSAELHELATYPRTETGSGSP-NH2 (SMILES CC(C)C[C@H](NC(=O)[C@H](C)NC(=O)[C@H](C)NC(=O)[C@@H](NC(=O)[C@H](CO)NC(=O)[C@H](CC(C)C)NC(=O)[C@H](CCC(=O)O)NC(=O)[C@H](CO)NC(=O)[C@H](C)NC(=O)CC[C@H](NC(=O)CCCCCCCCCCCCCCCCCCC(=O)O)C(=O)O)[C@@H](C)O)C(=O)NCC(=O)N[C@@H](CCCNC(=N)N)C(=O)N[C@@H](CC(C)C)C(=O)N[C@@H](CO)C(=O)N[C@@H](C)C(=O)N[C@@H](CCC(=O)O)C(=O)N[C@@H](CC(C)C)C(=O)N[C@@H](Cc1c[nH]cn1)C(=O)N[C@@H](CCC(=O)O)C(=O)N[C@@H](CC(C)C)C(=O)N[C@@H](C)C(=O)N[C@H](C(=O)N[C@@H](Cc1ccc(O)cc1)C(=O)N1CCC[C@H]1C(=O)N[C@@H](CCCNC(=N)N)C(=O)N[C@H](C(=O)N[C@@H](CCC(=O)O)C(=O)N[C@H](C(=O)NCC(=O)N[C@@H](CO)C(=O)NCC(=O)N[C@@H](CO)C(=O)N1CCC[C@H]1C(N)=O)[C@@H](C)O)[C@@H](C)O)[C@@H](C)O) [[N-terminal(C20 diacid-gGlu), des1, 23Y, 30S, 31G]mimylin] | 24 pM | 67 pM
4 | {C18 diacid-γGlu}-ASELSTAALGRLSAELHELATYPRTETGSGSP-NH2 (SMILES CC(C)C[C@H](NC(=O)[C@H](C)NC(=O)[C@H](C)NC(=O)[C@@H](NC(=O)[C@H](CO)NC(=O)[C@H](CC(C)C)NC(=O)[C@H](CCC(=O)O)NC(=O)[C@H](CO)NC(=O)[C@H](C)NC(=O)CC[C@H](NC(=O)CCCCCCCCCCCCCCCCC(=O)O)C(=O)O)[C@@H](C)O)C(=O)NCC(=O)N[C@@H](CCCNC(=N)N)C(=O)N[C@@H](CC(C)C)C(=O)N[C@@H](CO)C(=O)N[C@@H](C)C(=O)N[C@@H](CCC(=O)O)C(=O)N[C@@H](CC(C)C)C(=O)N[C@@H](Cc1c[nH]cn1)C(=O)N[C@@H](CCC(=O)O)C(=O)N[C@@H](CC(C)C)C(=O)N[C@@H](C)C(=O)N[C@H](C(=O)N[C@@H](Cc1ccc(O)cc1)C(=O)N1CCC[C@H]1C(=O)N[C@@H](CCCNC(=N)N)C(=O)N[C@H](C(=O)N[C@@H](CCC(=O)O)C(=O)N[C@H](C(=O)NCC(=O)N[C@@H](CO)C(=O)NCC(=O)N[C@@H](CO)C(=O)N1CCC[C@H]1C(N)=O)[C@@H](C)O)[C@@H](C)O)[C@@H](C)O) [[N-terminal(C18 diacid-gGlu), des1, 23Y, 30S, 31G]mimylin] | 15 pM | 24 pM
5 | ASELSTAALGRLSAELHK([γGlu-C20 diacid])LATLPRTETGSGSP-NH2 (N-terminus assumed; SMILES CC(C)C[C@H](NC(=O)[C@H](C)NC(=O)[C@H](C)NC(=O)[C@@H](NC(=O)[C@H](CO)NC(=O)[C@H](CC(C)C)NC(=O)[C@H](CCC(=O)O)NC(=O)[C@H](CO)NC(=O)[C@H](C)N)[C@@H](C)O)C(=O)NCC(=O)N[C@@H](CCCNC(=N)N)C(=O)N[C@@H](CC(C)C)C(=O)N[C@@H](CO)C(=O)N[C@@H](C)C(=O)N[C@@H](CCC(=O)O)C(=O)N[C@@H](CC(C)C)C(=O)N[C@@H](Cc1c[nH]cn1)C(=O)N[C@@H](CCCCNC(=O)CC[C@H](NC(=O)CCCCCCCCCCCCCCCCCCC(=O)O)C(=O)O)C(=O)N[C@@H](CC(C)C)C(=O)N[C@@H](C)C(=O)N[C@H](C(=O)N[C@@H](CC(C)C)C(=O)N1CCC[C@H]1C(=O)N[C@@H](CCCNC(=N)N)C(=O)N[C@H](C(=O)N[C@@H](CCC(=O)O)C(=O)N[C@H](C(=O)NCC(=O)N[C@@H](CO)C(=O)NCC(=O)N[C@@H](CO)C(=O)N1CCC[C@H]1C(N)=O)[C@@H](C)O)[C@@H](C)O)[C@@H](C)O) [[des1, 19K(C20 diacid-gGlu), 30S, 31G]mimylin] | 28 pM | 49 pM
6 | {C20 diacid-γGlu}-ASELSTAALGRLSAELHELATLPRTETGSGSH-NH2 (SMILES CC(C)C[C@H](NC(=O)[C@H](C)NC(=O)[C@H](C)NC(=O)[C@@H](NC(=O)[C@H](CO)NC(=O)[C@H](CC(C)C)NC(=O)[C@H](CCC(=O)O)NC(=O)[C@H](CO)NC(=O)[C@H](C)NC(=O)CC[C@H](NC(=O)CCCCCCCCCCCCCCCCCCC(=O)O)C(=O)O)[C@@H](C)O)C(=O)NCC(=O)N[C@@H](CCCNC(=N)N)C(=O)N[C@@H](CC(C)C)C(=O)N[C@@H](CO)C(=O)N[C@@H](C)C(=O)N[C@@H](CCC(=O)O)C(=O)N[C@@H](CC(C)C)C(=O)N[C@@H](Cc1c[nH]cn1)C(=O)N[C@@H](CCC(=O)O)C(=O)N[C@@H](CC(C)C)C(=O)N[C@@H](C)C(=O)N[C@H](C(=O)N[C@@H](CC(C)C)C(=O)N1CCC[C@H]1C(=O)N[C@@H](CCCNC(=N)N)C(=O)N[C@H](C(=O)N[C@@H](CCC(=O)O)C(=O)N[C@H](C(=O)NCC(=O)N[C@@H](CO)C(=O)NCC(=O)N[C@@H](CO)C(=O)N[C@@H](Cc1c[nH]cn1)C(N)=O)[C@@H](C)O)[C@@H](C)O)[C@@H](C)O) [[N-terminal(C20 diacid-gGlu), des1, 30S, 31G, 33H]mimylin] | 72 pM | 125 pM
7 | {C20 diacid-γGlu}-ASELSTAALGRLSAELHELATLPRTETGSGSF-NH2 (SMILES CC(C)C[C@H](NC(=O)[C@H](C)NC(=O)[C@H](C)NC(=O)[C@@H](NC(=O)[C@H](CO)NC(=O)[C@H](CC(C)C)NC(=O)[C@H](CCC(=O)O)NC(=O)[C@H](CO)NC(=O)[C@H](C)NC(=O)CC[C@H](NC(=O)CCCCCCCCCCCCCCCCCCC(=O)O)C(=O)O)[C@@H](C)O)C(=O)NCC(=O)N[C@@H](CCCNC(=N)N)C(=O)N[C@@H](CC(C)C)C(=O)N[C@@H](CO)C(=O)N[C@@H](C)C(=O)N[C@@H](CCC(=O)O)C(=O)N[C@@H](CC(C)C)C(=O)N[C@@H](Cc1c[nH]cn1)C(=O)N[C@@H](CCC(=O)O)C(=O)N[C@@H](CC(C)C)C(=O)N[C@@H](C)C(=O)N[C@H](C(=O)N[C@@H](CC(C)C)C(=O)N1CCC[C@H]1C(=O)N[C@@H](CCCNC(=N)N)C(=O)N[C@H](C(=O)N[C@@H](CCC(=O)O)C(=O)N[C@H](C(=O)NCC(=O)N[C@@H](CO)C(=O)NCC(=O)N[C@@H](CO)C(=O)N[C@@H](Cc1ccccc1)C(N)=O)[C@@H](C)O)[C@@H](C)O)[C@@H](C)O) [[N-terminal(C20 diacid-gGlu), des1, 30S, 31G, 33F]mimylin] | 73 pM | 94 pM
